For 1 substance, IC50 of inhibition of peptidase activity (continuous fluorometric assay, Z-Phe-Arg-AMC, 25 mM MES pH 6, 5 mM DTT; peptidase 10 nM), IC50 of inhibition of peptidase activity (continuous fluorometric assay, Z-Ala-Ala-Asn-AMC, 25 mM MES pH 6, 5 mM DTT; peptidase 10 nM) and IC50 of inhibition of peptidase activity (continuous fluorometric assay, Z-Phe-Arg-AMC, 25 mM MES pH 6, 5 mM DTT; peptidase 5 nM) results are on record in publication PMC5727476.

The target of assay [1] is Eudiplozoon nipponicum cathepsin B (EnCB) (Eudiplozoon nipponicum).
Assay [2] has as its target Eudiplozoon nipponicum cathepsin L3 (EnCL3) (Eudiplozoon nipponicum).
Assay [3] has as its target recombinant Ixodes ricinus asparaginyl endopeptidase (IrAe) (Ixodes ricinus).
For assay [4], the target named is recombinant mouse cathepsin L (MmCL) (mouse) (UniProt P06797).
Chain of UniProt P06797 (P06797 18-334): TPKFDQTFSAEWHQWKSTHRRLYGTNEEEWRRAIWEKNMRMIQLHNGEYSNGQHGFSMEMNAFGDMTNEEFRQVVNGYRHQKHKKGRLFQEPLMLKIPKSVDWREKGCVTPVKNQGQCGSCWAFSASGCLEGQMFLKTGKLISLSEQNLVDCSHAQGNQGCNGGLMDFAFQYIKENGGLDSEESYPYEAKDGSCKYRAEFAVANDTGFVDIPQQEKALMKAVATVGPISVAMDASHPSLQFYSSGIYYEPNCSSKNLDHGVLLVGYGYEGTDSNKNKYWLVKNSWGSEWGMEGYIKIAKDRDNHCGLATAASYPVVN

On to “recombinant Eudiplozoon nipponicum stefin (rEnStef) (natural protein)”, for which the IC50 of inhibition of peptidase activity (continuous fluorometric assay, Z-Phe-Arg-AMC, 25 mM MES pH 6, 5 mM DTT; peptidase 10 nM) was found to be 13.7 nM in assay [1] and 46.7 nM in assay [2]. Also, the IC50 of inhibition of peptidase activity (continuous fluorometric assay, Z-Ala-Ala-Asn-AMC, 25 mM MES pH 6, 5 mM DTT; peptidase 10 nM) in assay [3] was 371 nM. In addition, the IC50 of inhibition of peptidase activity (continuous fluorometric assay, Z-Phe-Arg-AMC, 25 mM MES pH 6, 5 mM DTT; peptidase 5 nM) in assay [4] was determined as 133 nM.
